Read-outs that look alike come from different tables or passages of the source.
Experiments:
MD2 (Homo sapiens) [1] = target: MD2 (Homo sapiens) (UniProt Q9Y6Y9); details: cited from earlier work
[2] = target: MD2-TLR4 complex (rat (endogenous in NRK-52E)) (UniProt Q9QX05)
[3] = target: MD2-TLR4 complex (rat (endogenous in NRK-52E)) (UniProt Q9QX05); remark: listed apart in the source
MD2 (Homo sapiens) [4] = target: MD2 (Homo sapiens) (UniProt Q9Y6Y9); details: cited from earlier work; remark: listed apart in the source

UniProt Q9Y6Y9, sequence (Q9Y6Y9 19-160): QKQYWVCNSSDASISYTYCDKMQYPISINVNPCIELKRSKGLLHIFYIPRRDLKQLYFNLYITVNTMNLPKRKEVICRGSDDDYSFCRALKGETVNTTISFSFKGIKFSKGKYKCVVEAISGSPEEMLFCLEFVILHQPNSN
UniProt Q9QX05, sequence (Q9QX05 whole entry, looked up, one chain of several): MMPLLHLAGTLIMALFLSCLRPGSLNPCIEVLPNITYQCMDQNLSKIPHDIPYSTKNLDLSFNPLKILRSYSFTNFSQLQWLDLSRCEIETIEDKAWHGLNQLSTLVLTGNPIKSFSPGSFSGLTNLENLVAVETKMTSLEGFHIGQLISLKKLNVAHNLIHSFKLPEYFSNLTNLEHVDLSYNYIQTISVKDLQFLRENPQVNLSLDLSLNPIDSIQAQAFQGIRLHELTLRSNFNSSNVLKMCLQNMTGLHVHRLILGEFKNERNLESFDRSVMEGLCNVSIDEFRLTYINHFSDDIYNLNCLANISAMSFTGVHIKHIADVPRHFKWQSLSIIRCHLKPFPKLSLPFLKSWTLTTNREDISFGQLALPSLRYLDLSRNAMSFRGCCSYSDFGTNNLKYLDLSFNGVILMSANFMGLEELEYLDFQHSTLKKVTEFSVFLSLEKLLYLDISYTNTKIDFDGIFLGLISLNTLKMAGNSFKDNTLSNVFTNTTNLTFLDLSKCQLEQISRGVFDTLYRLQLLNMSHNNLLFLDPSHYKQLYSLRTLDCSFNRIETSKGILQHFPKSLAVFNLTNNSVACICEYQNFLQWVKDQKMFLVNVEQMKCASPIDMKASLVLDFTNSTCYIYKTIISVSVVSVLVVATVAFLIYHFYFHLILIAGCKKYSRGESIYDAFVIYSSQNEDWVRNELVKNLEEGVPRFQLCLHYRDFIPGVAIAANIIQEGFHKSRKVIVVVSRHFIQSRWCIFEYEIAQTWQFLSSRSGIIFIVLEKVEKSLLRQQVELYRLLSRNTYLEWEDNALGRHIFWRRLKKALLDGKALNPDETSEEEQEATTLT

For Angiotensin II (from UniProt P01019), the Kd (MD2 (Homo sapiens) [1]) is listed as 200 µM.

Substance Angiotensin II (peptide) has an IL-6 content of the media of NRK-52E cells (ELISA), Ang II 1 μM against control [2] of 15 pg/mL and an IL-6 content of the media of NRK-52E cells (ELISA), Ang II 1 μM against control [3] of 61 pg/mL.

For HMGB1 (from UniProt P09429), the Kd (MD2 (Homo sapiens) [4]) is listed as 0.6 µM.
